In general, stoichiometry N refers to the number of molecules, sites or subunits per partner or assembly.

The test concerns the target Human EGFR JM-kinase construct (JM-A and JM-B, residues 645-998) (human). Description: static light scattering.

Regarding “Human EGFR JM-kinase construct (JM-A and JM-B, residues 645-998) (domain or fragment)”, the stoichiometry N worked out at 2.

(Values after paper PMC2814540.)
